Legend:
[1] = tested on: AMPK; experiment: PK selectivity profiling, residual kinase activity; type: biochemical; conditions: 1 μM ARC-669, ATP close to Km
[2] = target: EPH-B1 (Homo sapiens, UniProt P54762); experiment: biochemical; conditions: read-out: Percentages of residual activities of the kinase reaction
Experimental: (§1) Selectivity testing (Table 2) was performed on the commercial basis at the Division of Signal Transduction Therapy, University of Dundee. ATP concentrations that were used in testing were close to the Km value of the kinase.

[3] = target: PLK1 (Homo sapiens, UniProt P53350); experiment: biochemical; conditions: read-out: Percentages of residual activities of the kinase reaction
Experimental: as §1

[4] = target: EPH-B4 (Homo sapiens, UniProt P54760); experiment: biochemical; conditions: read-out: Percentages of residual activities of the kinase reaction
Experimental: as §1

[5] = target: PIM3 (Homo sapiens, UniProt Q86V86); experiment: biochemical; conditions: read-out: Percentages of residual activities of the kinase reaction
Experimental: as §1

[6] = target: TTK (Homo sapiens, UniProt P33981); experiment: biochemical; conditions: read-out: Percentages of residual activities of the kinase reaction
Experimental: as §1

[7] = target: p38g MAPK (Homo sapiens, UniProt P53778); experiment: biochemical; conditions: read-out: Percentages of residual activities of the kinase reaction
Experimental: as §1

[8] = target: DAPK1 (Homo sapiens, UniProt P53355); experiment: biochemical; conditions: read-out: Percentages of residual activities of the kinase reaction
Experimental: as §1

[9] = target: BRK (Homo sapiens, UniProt Q13882); experiment: biochemical; conditions: read-out: Percentages of residual activities of the kinase reaction
Experimental: as §1

[10] = target: PAK2 (Homo sapiens, UniProt Q13177); experiment: biochemical; conditions: read-out: Percentages of residual activities of the kinase reaction
Experimental: as §1

[11] = target: PRK2 (Homo sapiens, UniProt Q16513); experiment: biochemical; conditions: read-out: Percentages of residual activities of the kinase reaction
Experimental: as §1

[12] = target: MARK1 (Homo sapiens, UniProt Q9P0L2); experiment: biochemical; conditions: read-out: Percentages of residual activities of the kinase reaction
Experimental: as §1

[13] = target: YES1 (Homo sapiens, UniProt P07947); experiment: biochemical; conditions: read-out: Percentages of residual activities of the kinase reaction
Experimental: as §1

[14] = target: p38b MAPK (Homo sapiens, UniProt Q15759); experiment: biochemical; conditions: read-out: Percentages of residual activities of the kinase reaction
Experimental: as §1

[15] = target: EPH-A2 (Homo sapiens, UniProt P29317); experiment: biochemical; conditions: read-out: Percentages of residual activities of the kinase reaction
Experimental: as §1

[16] = target: GCK (Homo sapiens, UniProt Q12851); experiment: biochemical; conditions: read-out: Percentages of residual activities of the kinase reaction
Experimental: as §1

[17] = target: ROCK 2 (Homo sapiens, UniProt O75116); experiment: biochemical; conditions: read-out: Percentages of residual activities of the kinase reaction
Experimental: as §1

[18] = target: PIM1 (Homo sapiens, UniProt P11309); experiment: biochemical; conditions: read-out: Percentages of residual activities of the kinase reaction
Experimental: as §1

[19] = target: EF2K (Homo sapiens, UniProt O00418); experiment: biochemical; conditions: read-out: Percentages of residual activities of the kinase reaction
Experimental: as §1

[20] = target: MINK1 (Homo sapiens, UniProt Q8N4C8); experiment: biochemical; conditions: read-out: Percentages of residual activities of the kinase reaction
Experimental: as §1

[21] = target: ERK2 (Homo sapiens, UniProt P28482); experiment: biochemical; conditions: read-out: Percentages of residual activities of the kinase reaction
Experimental: as §1

[22] = target: NEK6 (Homo sapiens, UniProt Q9HC98); experiment: biochemical; conditions: read-out: Percentages of residual activities of the kinase reaction
Experimental: as §1

[23] = target: CLK2 (Homo sapiens, UniProt P49760); experiment: biochemical; conditions: read-out: Percentages of residual activities of the kinase reaction
Experimental: as §1

[24] = target: EPH-A4 (Homo sapiens, UniProt P54764); experiment: biochemical; conditions: read-out: Percentages of residual activities of the kinase reaction
Experimental: as §1

[25] = target: PKCa (Homo sapiens, UniProt P17252); experiment: biochemical; conditions: read-out: Percentages of residual activities of the kinase reaction
Experimental: as §1

[26] = target: p38a MAPK (Homo sapiens, UniProt Q16539); experiment: biochemical; conditions: read-out: Percentages of residual activities of the kinase reaction
Experimental: as §1

[27] = target: CAMKKb (Homo sapiens, UniProt Q96RR4); experiment: biochemical; conditions: read-out: Percentages of residual activities of the kinase reaction
Experimental: as §1

[28] = target: DYRK3 (Homo sapiens, UniProt O43781); experiment: biochemical; conditions: read-out: Percentages of residual activities of the kinase reaction
Experimental: as §1

[29] = target: MKK6 (Homo sapiens, UniProt P52564); experiment: biochemical; conditions: read-out: Percentages of residual activities of the kinase reaction
Experimental: as §1

[30] = target: PKCz (Homo sapiens, UniProt Q05513); experiment: biochemical; conditions: read-out: Percentages of residual activities of the kinase reaction
Experimental: as §1

[31] = target: PDK1 (Homo sapiens, UniProt O15530); experiment: biochemical; conditions: read-out: Percentages of residual activities of the kinase reaction
Experimental: as §1

[32] = target: RSK2 (Homo sapiens, UniProt P51812); experiment: biochemical; conditions: read-out: Percentages of residual activities of the kinase reaction
Experimental: as §1

[33] = target: MST4 (Homo sapiens, UniProt Q9P289); experiment: biochemical; conditions: read-out: Percentages of residual activities of the kinase reaction
Experimental: as §1

[34] = target: CHK1 (Homo sapiens, UniProt O14757); experiment: biochemical; conditions: read-out: Percentages of residual activities of the kinase reaction
Experimental: as §1

[35] = target: Lck (Homo sapiens, UniProt P06239); experiment: biochemical; conditions: read-out: Percentages of residual activities of the kinase reaction
Experimental: as §1

[36] = tested on: PHK; experiment: PK selectivity profiling, residual kinase activity; type: biochemical; conditions: 1 μM ARC-669, ATP close to Km

PKCz, sequence (Q05513 whole entry): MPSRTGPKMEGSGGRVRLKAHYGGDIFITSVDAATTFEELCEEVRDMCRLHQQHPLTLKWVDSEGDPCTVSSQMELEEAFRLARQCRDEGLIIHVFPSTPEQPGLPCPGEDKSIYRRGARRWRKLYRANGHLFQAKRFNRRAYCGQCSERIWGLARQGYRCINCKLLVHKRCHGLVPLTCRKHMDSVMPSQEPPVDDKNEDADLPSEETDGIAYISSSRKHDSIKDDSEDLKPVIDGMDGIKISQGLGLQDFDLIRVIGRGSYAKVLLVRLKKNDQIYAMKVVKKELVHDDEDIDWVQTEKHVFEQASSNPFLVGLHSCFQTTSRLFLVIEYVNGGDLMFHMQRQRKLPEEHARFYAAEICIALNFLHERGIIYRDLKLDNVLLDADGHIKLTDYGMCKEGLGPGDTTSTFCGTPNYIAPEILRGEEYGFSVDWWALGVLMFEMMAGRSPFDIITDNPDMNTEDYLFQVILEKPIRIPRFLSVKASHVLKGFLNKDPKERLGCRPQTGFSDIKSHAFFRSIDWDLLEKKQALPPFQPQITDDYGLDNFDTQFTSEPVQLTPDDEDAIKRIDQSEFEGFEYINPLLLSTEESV
PAK2, sequence (Q13177 whole entry, species assumed): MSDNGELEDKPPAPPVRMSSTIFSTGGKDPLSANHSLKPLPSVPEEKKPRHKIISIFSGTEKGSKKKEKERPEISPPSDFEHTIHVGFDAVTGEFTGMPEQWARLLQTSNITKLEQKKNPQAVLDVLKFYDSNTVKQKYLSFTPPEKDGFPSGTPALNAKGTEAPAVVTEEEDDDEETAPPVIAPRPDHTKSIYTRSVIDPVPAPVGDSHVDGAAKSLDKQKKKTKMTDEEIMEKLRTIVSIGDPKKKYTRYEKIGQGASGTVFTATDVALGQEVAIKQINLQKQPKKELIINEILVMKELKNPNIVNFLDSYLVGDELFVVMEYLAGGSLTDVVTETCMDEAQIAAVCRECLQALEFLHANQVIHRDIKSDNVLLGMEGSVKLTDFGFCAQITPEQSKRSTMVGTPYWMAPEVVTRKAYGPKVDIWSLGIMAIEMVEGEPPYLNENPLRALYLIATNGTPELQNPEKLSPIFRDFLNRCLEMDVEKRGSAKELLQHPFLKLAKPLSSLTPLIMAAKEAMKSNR
RSK2, sequence (P51812 whole entry, species assumed): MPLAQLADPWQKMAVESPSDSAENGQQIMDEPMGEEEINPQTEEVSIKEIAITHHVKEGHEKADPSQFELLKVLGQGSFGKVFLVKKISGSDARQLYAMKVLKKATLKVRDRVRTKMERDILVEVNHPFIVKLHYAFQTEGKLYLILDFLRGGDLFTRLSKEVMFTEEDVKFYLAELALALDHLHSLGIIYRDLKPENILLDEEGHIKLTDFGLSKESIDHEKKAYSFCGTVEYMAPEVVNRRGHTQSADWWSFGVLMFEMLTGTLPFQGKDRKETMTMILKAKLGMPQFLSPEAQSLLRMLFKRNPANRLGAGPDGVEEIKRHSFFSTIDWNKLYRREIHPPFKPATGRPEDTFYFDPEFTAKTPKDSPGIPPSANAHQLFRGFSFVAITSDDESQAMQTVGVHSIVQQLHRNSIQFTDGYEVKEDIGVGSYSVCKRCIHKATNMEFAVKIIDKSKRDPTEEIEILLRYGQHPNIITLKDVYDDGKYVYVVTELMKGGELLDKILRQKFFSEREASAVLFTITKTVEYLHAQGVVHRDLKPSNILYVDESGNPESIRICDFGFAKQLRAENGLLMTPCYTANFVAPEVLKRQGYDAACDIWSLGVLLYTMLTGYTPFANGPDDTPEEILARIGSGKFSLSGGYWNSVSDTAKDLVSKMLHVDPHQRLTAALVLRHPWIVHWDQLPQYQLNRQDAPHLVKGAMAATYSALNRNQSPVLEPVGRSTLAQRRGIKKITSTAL
ERK2, sequence (P28482 whole entry, species assumed): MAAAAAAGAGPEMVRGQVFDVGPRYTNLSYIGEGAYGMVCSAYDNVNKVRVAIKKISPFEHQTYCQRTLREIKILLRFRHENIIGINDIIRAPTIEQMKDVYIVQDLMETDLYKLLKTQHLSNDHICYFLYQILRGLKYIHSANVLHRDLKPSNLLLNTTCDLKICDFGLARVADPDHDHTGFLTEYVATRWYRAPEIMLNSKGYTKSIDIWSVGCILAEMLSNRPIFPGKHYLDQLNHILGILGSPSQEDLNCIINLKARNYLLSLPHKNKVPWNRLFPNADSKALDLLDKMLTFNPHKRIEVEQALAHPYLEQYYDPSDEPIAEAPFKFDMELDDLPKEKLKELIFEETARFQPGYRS
YES1, sequence (P07947 whole entry, species assumed): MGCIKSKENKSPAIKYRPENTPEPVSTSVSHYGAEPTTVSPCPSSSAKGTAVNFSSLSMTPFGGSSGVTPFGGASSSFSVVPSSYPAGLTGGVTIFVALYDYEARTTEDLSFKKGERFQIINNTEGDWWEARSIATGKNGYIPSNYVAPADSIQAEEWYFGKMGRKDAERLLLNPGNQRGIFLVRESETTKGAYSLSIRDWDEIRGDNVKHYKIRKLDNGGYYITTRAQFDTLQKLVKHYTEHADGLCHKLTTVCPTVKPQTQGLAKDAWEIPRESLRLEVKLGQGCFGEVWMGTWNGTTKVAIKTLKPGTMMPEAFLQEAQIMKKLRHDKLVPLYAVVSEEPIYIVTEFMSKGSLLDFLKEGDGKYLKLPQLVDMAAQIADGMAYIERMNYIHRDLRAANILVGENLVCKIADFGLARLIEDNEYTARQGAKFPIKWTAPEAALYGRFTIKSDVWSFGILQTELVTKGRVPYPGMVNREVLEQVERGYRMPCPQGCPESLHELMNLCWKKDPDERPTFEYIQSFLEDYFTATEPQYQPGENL
MKK6, sequence (P52564 whole entry, species assumed): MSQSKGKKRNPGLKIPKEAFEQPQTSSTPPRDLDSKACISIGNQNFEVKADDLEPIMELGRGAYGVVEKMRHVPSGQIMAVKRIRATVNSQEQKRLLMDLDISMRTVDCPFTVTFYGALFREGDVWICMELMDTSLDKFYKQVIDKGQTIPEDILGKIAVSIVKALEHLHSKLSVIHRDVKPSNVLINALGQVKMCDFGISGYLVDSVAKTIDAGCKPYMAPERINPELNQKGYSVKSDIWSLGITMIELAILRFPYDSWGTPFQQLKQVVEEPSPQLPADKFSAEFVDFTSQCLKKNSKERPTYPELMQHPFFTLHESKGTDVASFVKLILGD
MST4, sequence (Q9P289 whole entry, species assumed): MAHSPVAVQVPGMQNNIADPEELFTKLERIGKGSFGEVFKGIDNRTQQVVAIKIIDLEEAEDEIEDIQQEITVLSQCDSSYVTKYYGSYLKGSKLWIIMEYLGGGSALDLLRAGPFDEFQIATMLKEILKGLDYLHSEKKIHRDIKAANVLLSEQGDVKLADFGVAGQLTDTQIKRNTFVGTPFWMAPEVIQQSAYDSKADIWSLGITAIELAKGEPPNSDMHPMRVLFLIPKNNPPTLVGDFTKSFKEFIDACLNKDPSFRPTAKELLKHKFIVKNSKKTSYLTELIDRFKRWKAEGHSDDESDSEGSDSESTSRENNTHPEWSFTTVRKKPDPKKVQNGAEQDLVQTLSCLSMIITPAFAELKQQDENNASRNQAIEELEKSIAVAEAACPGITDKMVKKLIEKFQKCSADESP
EF2K, sequence (O00418 whole entry): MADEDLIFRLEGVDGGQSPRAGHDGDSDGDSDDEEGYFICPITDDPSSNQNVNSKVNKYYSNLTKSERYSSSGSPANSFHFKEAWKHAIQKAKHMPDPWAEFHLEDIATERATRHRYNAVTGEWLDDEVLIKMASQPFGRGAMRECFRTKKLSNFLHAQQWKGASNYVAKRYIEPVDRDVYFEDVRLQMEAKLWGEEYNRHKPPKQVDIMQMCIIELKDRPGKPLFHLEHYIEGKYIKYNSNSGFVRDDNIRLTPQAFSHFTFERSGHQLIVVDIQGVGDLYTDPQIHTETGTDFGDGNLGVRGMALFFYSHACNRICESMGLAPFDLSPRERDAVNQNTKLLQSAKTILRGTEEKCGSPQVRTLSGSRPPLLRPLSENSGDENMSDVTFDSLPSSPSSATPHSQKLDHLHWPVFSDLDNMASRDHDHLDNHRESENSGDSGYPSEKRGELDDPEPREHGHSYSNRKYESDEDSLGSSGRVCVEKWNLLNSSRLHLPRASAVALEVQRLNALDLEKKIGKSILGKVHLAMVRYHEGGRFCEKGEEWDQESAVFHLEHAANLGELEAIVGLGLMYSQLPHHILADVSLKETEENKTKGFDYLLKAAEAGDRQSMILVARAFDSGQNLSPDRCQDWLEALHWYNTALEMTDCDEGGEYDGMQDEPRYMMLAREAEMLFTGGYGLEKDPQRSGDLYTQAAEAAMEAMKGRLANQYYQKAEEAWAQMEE
PIM1, sequence (P11309 whole entry, species assumed): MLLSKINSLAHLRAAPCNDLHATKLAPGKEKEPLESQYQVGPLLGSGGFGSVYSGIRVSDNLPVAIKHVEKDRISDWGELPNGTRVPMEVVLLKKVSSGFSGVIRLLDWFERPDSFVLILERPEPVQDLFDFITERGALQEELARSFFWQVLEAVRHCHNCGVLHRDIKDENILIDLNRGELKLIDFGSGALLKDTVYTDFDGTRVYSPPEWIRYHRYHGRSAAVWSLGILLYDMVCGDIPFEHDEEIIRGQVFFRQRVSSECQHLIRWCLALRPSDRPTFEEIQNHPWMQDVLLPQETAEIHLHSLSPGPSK
BRK, sequence (Q13882 whole entry, species assumed): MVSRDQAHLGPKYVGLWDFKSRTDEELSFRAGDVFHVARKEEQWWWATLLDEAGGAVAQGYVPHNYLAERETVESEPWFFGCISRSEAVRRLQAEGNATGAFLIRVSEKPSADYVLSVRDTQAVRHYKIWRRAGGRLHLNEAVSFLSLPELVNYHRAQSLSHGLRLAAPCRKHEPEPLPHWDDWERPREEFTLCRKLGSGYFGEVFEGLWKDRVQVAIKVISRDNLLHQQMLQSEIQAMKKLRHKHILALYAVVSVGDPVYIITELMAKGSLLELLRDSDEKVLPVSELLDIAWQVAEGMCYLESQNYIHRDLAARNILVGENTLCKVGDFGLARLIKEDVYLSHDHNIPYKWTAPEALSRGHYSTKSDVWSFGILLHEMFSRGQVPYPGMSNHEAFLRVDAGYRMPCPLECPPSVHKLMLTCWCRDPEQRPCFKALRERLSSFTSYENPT

In the case of CN(C)c1ccc2c(c1)Oc1cc(N(C)C)ccc1C21OC(=O)c2cc(C(=O)NCCCC[C@@H](NC(=O)[C@@H](CCCNC(=N)N)NC(=O)[C@@H](CCCNC(=N)N)NC(=O)[C@@H](CCCNC(=N)N)NC(=O)[C@@H](CCCNC(=N)N)NC(=O)[C@@H](CCCNC(=N)N)NC(=O)[C@@H](CCCNC(=N)N)NC(=O)CCCCCNC(=O)[C@@H](CCCNC(=N)N)NC(=O)CCCCCNC(=O)c3ccc(-c4ccnc(N)n4)s3)C(N)=O)ccc21 [ARC-669], the “Percentages of residual activities of the kinase reaction” value [1] was 36%, the remaining activity at 1 µM [2] was 90% and the remaining activity at 1 µM [3] was 101%. The remaining activity at 1 µM [4] was 98%, the remaining activity at 1 µM [5] was 7% and the remaining activity at 1 µM [6] was 66%. It also gave a remaining activity at 1 µM [7] of 104%, a remaining activity at 1 µM [8] of 20% and a remaining activity at 1 µM [9] of 100%. It also gave a remaining activity at 1 µM [10] of 43%, a remaining activity at 1 µM [11] of 4% and a remaining activity at 1 µM [12] of 65%. For the same compound, the remaining activity at 1 µM [13] was 64%, the remaining activity at 1 µM [14] was 71% and the remaining activity at 1 µM [15] was 98%. For the same compound, the remaining activity at 1 µM [16] was 10%, the remaining activity at 1 µM [17] was 10% and the remaining activity at 1 µM [18] was 3%. It also gave a remaining activity at 1 µM [19] of 43%, a remaining activity at 1 µM [20] of 51% and a remaining activity at 1 µM [21] of 80%. The remaining activity at 1 µM [22] was 71%, the remaining activity at 1 µM [23] was 1% and the remaining activity at 1 µM [24] was 76%. The remaining activity at 1 µM [25] was 15%, the remaining activity at 1 µM [26] was 55% and the remaining activity at 1 µM [27] was 41%. For the same compound, the remaining activity at 1 µM [28] was 18%, the remaining activity at 1 µM [29] was 107% and the remaining activity at 1 µM [30] was 10%. It also gave a remaining activity at 1 µM [31] of 88%, a remaining activity at 1 µM [32] of 4% and a remaining activity at 1 µM [33] of 45%. For the same compound, the remaining activity at 1 µM [34] was 29%, the remaining activity at 1 µM [35] was 11% and the “Percentages of residual activities of the kinase reaction” value [36] was 32%.

— US20140057284A1, “PHOTOLUMINESCENT MOLECULAR COMPLEX AND METHOD FOR DETERMINING OF THE CONCENTRATION OF SAID MOLECULAR COMPLEX” (priority 2011, published 2014)
